From US20100062011A1 come the findings set out here.

Assay [1] deals with Peptide having the amino acid sequence of the 298th to 312th of Gag protein derived from HIV-1 (HIV-1). The experiment in a line: ELISA, serial 2-fold serum dilutions on coated Gag peptide; negative control serum. In general terms: In an ELISA, binding on a coated surface is turned into a signal by an enzyme label.
Assay [2] addresses Amyloid β-peptide consisting of 42 amino acid residues (human). Kind of assay: ELISA, serial 2-fold serum dilutions on coated Aβ (SEQ ID NO:2); negative control serum.
Assay [3] concerns the target DTL, T-cell epitope peptide derived from diphtheria toxoid. Kind of assay: ELISA, serum dilutions on coated DTL peptide; control serum.
The target in assay [4] is TetT3L, T-cell epitope peptide derived from tetanus toxoid.

Regarding “Antiserum from BALB/c mice not vaccinated (negative control, Experiment 1) (antibody)”, the antibody titer in assay [1] was found to be 5.7; in assay [2], 9.2.
For “Serum of BALB/c mice given neither peptide nor binary mixed vaccine (Experiment 2) (antibody)”, the antibody titer in assay [3] and in assay [4] was 3 throughout.
